# Assay: yeast display, Sf9 membrane polyspecificity reagent, FACS + sequencing; frameworks hold sequencing errors
# How it was run: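 Nanobodies from a synthetic yeast display library (Saccharomyces cerevisiae BJ5465), induced 36–48 hours with galactose, were stained 1 hour at 4 °C with 10% biotinylated, detergent-solubilized Sf9 membrane reagent, enriched on streptavidin microbeads, then FACS-sorted. Anti-HA (expression) and streptavidin (reagent binding) fluorescence set low and high (top ~1%) gates. Polyreactivity labels come from the gate of origin. Genes were colony-PCR amplified, MiSeq 2 × 250 sequenced and filtered by CDR length.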
row,Sequence,polyreactivity (PSR sort gate)
1,QVQLVESGGGLVQAGVSLRLSCAASGLIFWAYAMGWYRQAPGKERELVAAINSGGRTYYADSVKGRFTISRDNAKNTVYLQMNSLKPEDTAVYYCAAAGVYSSDYWGQCTQVTVSS,low polyreactivity
2,QVQLVESGGGLVQAGVSLRLSCAASGNTFGLYAMGWYRQAPGKEREFVADITTDGGTTYYADSVKGRFTISRDNAKNTVYLQMNSLKPEDTAVYYCAKLGTFGQHQYDYWGQGTQVTVSS,low polyreactivity
3,QVQLVESGGGLVQAGVSLRLSCAASGRIFIVYAMGWYRQAPGKERELVAAISWRGGNTYYADSVKARFTISRDNAKNTVYLQMNSLKPEDTAVYYCAARQYGTAAFDYWGQGTQVTVSS,high polyreactivity
4,QVQLVESGGGLVQAGVSLRLSCAASGRIFPSYAMGWYRQAPGKEREMVAAITSSDSTYYADSVKGRFTISRDNAKNTVYLQMNSLKPDDTAVYYCAAAYSYSGWWWFGYWGQGTQVTVSS,high polyreactivity
5,QVQLVESGGGLVQAGVSLRLSCAASGSIFDVYAMGWYRQAPGKERELVATISYGDSSTYYADSVKGRFTISRDNAKNTVYLQMNSLKPEDTAVYYCAADYLTAPRWRQWGEMDYWGQGTQVTVSS,low polyreactivity
6,QVQLVESGGGLVQAGVSLRLSCAASGSIFRYYAMGWYRQAPGKERELVAAITVGGSTYYADSVKGRFTISRDNAKNTVYLQMNSLKPEDTAVYYCAADGDKRTKGYDYWGQGTQVTVSS,high polyreactivity
7,QVQLVESGGGLVQAGVSLRLSCAASGSIFSKYVMGWYRQAPGKERELVAAISWSGTRTYYADSVKGRFTISRDYAKNSVYLQMNSLKPEDTAVYYCAKYIFTTGLGYWGQGTQVTVSS,high polyreactivity
8,QVQLVESGGGLVQAGVSLRLSCAASGSIFSYNAMGWYRQAPGKERELVAAINNGGSTYYADSVKGRFTISRDNAKNTVYLQMNSLKPEDTAVYYCAAQSGHYAEYNYWGQGTQVTVSS,high polyreactivity
9,QVQLVESGGGLVQAGVSLRLSCAASGSSLARNAMGWYRQAPGKERELVAAISRRSGSTYYADSVKGRFTFSRDNAKNTVYLQMNSLKPEDTAVYYCAKLGIVHQYDYWGQGTQVTVSS,low polyreactivity
10,QVQLVESGGGLVQAGVSLRLSCAASGSTFTTNVMGWYIQAPGKERELVAAISWSSGSTYYADSVKGRFTISRDNAKNTVYLQMNSLKPEDTAVYYCAARLVIFYPYSRYYYWGQGTQVTVSS,high polyreactivity
11,QVQLVESGGGLVQAGVSLRLSCAASGTFYSNAMGWYRQAPGKERELVAAINTSGSTNYADSVKGRFTISRDNAKNTVYLQMNSLKPEDTAVYYCAAGIVVTGYDYWGQGTQVTVSS,low polyreactivity
12,QVQLVESGGGLVQAGVSLRLSCAASGTTFGLNPMGWYRQAPGKERELVAAISTSGGSTYYADSVKGRFTISRDNAKNSVYLQMISLKPEDTAVYYCAAEVDAGYDYSQYYYWGQGTQVTVSS,low polyreactivity
13,QVQLVESGGGLVQAGVSLRLSCAATGFPLQVYDMGWYRQAPGKEMELVADISGSGDSTNYADSVKGRFTISRDNAKNSVYLQMNSLKPEDTAVYYCAAEVRGGYYGYDYWGQGTQVTVSS,low polyreactivity
14,QVQLVESGGGLVQAGVSLRLSCAPSGRTFIYYAMGWYRQAPGKERELVATINGITGSTYYADSVKGRFTNSRDNAKNTVYLQMNSLKPEDTAVYYCAKVPRKYRAWMDYWGQGTQVTVSS,high polyreactivity
15,QVQLVESGGGLVQAGVSLRLSCASSGYTYHVYAMGWYRQAPGKERELVAAISTGDDTTFYADSVKVRFTISRDNAKNTVYLQMNSLKPEDTAVYYCAAAYGTPYGGYDYWGQGTQVTVSS,low polyreactivity
16,QVQLVESGGGLVQAGVSLRLSSAASGIIFAYYTMGWYRQAPGKERELVAAISWSGGSTYYADSVKGRFTISRDNAKNTVYLQMNSLKPEDTAVYYCAVVSRRTRLPYYYWGQGTQVTVSS,high polyreactivity
17,QVQLVESGGGLVQARGRLRLSCSASGRTFYGYAMGWYRQATGKERELVASISWSTGSTHYADSVKGRFTISRDNAKNTVYLQMNSLKPEDTAVYYCAAPFWRDSYVQIDYDFWGQGTQVTVSS,low polyreactivity
18,QVQLVESGGGLVQARGSLRLICAASGRTFSYNTMGWYRQAPGKERDLVASITRSGGSTYYSDSVKGRFTISRDNAKNTVYLQMNSLKPEDTAVYYCAADSYPGSTYYDSLDYWGQGTQVTVSS,low polyreactivity
19,QVQLVESGGGLVQARGSLRLRFAASGSTFPYYAMGWDRQAPGKERELVATITKRGGRKYYADSVKGRFTISRDNAKNTVYFLMTSLKPEDTAVYYCAARFRFAVTYDYWGQGTQVTVSS,high polyreactivity
20,QVQLVESGGGLVQARGSLRLSCAASGFTFAFYAMGWYRQAPGKEMELVAAITGSGGSTYDADSVKGRFTISRDNAKNTVYLQLNSLKPEDTAVYYCFTRGGYYLYYSYYYWGQGTQVTVSS,high polyreactivity
21,QVQLVESGGGLVQARGSLRLSCAASGFTFRSYTMGWYRQAHGKERELVAAITSRGTSTYYADSVKGRFTISLDNAKNTVYLQMNSLKPEDTAVYYCAAPIYNGYASWQVYYWGQGTQVTVSS,high polyreactivity

row,Sequence,polyreactivity (PSR sort gate)
1,QVQLVESGGGLVQARGSLRLSCAASGIIRSNAMGWYRQAPGKERELVAVISSSGGRTYYADSVKGRFTISRDNAKNTVYLQMTSLKPEDTAVFYCPAQVQVGAFSYYYWGQGTQVTVSS,high polyreactivity
2,QVQLVESGGGLVQARGSLRLSCAASGLTVGYNAMGWYRQARVKEWELVGAISSNGGRTYYADSVKGRFTISRDNAKNTVYLQMNSLKPEDTAVYYCNARYTGSSLYYWGQGTQVTVSS,high polyreactivity
3,QVQLVESGGGLVQARGSLRLSCAASGNTFVTNAIGWYRQAPGKVRELVAAINSSGGSTYYADSVKGRFTISRDNAKNTVYLQMNSLKPEDTAVYYCAADPLGITSGYGYWGQGTQVNVSS,low polyreactivity
4,QVQLVESGGGLVQARGSLRLSCAASGRIFLINGMGWYRQAPGKERELVAVITQSGGTYYADSVKGRFTISRDNAKNTVYLQMNSLKPEDTAVYYFAASSYGASRGYWGQGTQVTVSS,high polyreactivity
5,QVQLVESGGGLVQARGSLRLSCAASGRIFVRKAMGWYRQAPGKERELVASISTSSGSTYYADSVKGRFTISRDNAKNTVYLQMNSLTPEVTAVYYCNAGYHFVHWPHVKHKKFDYWGQGTQVTVSS,low polyreactivity
6,QVQLVESGGGLVQARGSLRLSCAASGRTFDLYAMGWYRQSPGKERELVAAITKGGGSTYYADSVKGRFTISRDNAKNTVYLQMNSLKPEDTAVYYCAARKYKRIYRISSGIGYYWGQGTQVTVSS,high polyreactivity
7,QVQLVESGGGLVQARGSLRLSCAASGRTFFENAMGWYRQAPGKERELVATITTTGGSTYYADSVKGRFTISRDNAKNTVYLQMNSLKPEYTAVYYCATRGWYLGSRGYRNRYGYWGQGTQVTVSS,high polyreactivity
8,QVQLVESGGGLVQARGSLRLSCAASGRTFGNYAMGWYRQSPGKERELVASINTGGSTSYADSVKGRFTISRDNAKNTVYFLMNSLKPEDTAVYYCARSFFWYRLHVYWGQGTQVTVSS,low polyreactivity
9,QVQLVESGGGLVQARGSLRLSCAASGRTFRSYAMGWYRQAPGKERELVAVITRSTGNTYYADSVKGRFTISRDNAMNTVYLQMNSLKPEDTAVYYCARQYRRYDYWGQGTQVTVSS,high polyreactivity
10,QVQLVESGGGLVQARGSLRLSCAASGSIFDPNAMGWSRQAPGKVRELGAAMTSGGGSTYYADSVKGRFTISRDNAKNTVYLQMNSLKPEDTAVYYCNNVFVLPYNFVAWFDYWGQGTQVTVSW,low polyreactivity
11,QVQLVESGGGLVQARGSLRLSCAASGSIFGKNVMGWYRQAPGKERELVAAISRSGGRTYYADSVKGRFTISRDNAKNTVYLQMNSLKPEDTAVYYCAADGQPIGQQTYDYWGQGTQVTVSS,high polyreactivity
12,QVQLVESGGGLVQARGSLRLSCAASGSIFNRNAMGWYRQAPGKERELVAAISRRGGSTYYADSVKGRFTISRDNEKNSVYLQMNSLKPEDTAVYYCAAATRKTEYDYWGQGTEVTVSS,low polyreactivity
13,QVQLVESGGGLVQARGSLRLSCAASGSIFSIYAMGWYRPAPGTERELVASITRSSGRTYYADSVKGRFTISRDNAKNTVYLQMISLKPEDTAVYYCAKDYIPLALDADDYWGQGTQVTVSS,low polyreactivity
14,QVQLVESGGGLVQARGSLRLSCAASGSISDYYAMGWYRQAPGKERELVAAISWDGGSTYYADSVKGRFTISRDNAKNTVYLQLNSLKPEDTAVYYCNAGSGASVGNNILYDYWGQGTQVTVSS,low polyreactivity
15,QVQLVESGGGLVQARGSLRLSCAASGSTFRYYAMGLYRQAPGKERELVAAITSSGTSTYYADSVKGRFTISRDNAKNTVYLQMISLKPEDTAVYYCAAPPVYKWVSSRYDYWGQVTQVTVSS,low polyreactivity
16,QVQLVESGGGLVQARGSLRLSCAASGSTFYYYAMGWYRQAPGKEREFVAAISWTGGTTYYADSVKGRFTISRDIAKNTVYLQMNSLKPEDTAVYYCNADPWWDSDWGYDYWGQGTQVTVSS,low polyreactivity
17,QVQLVESGGGLVQARGSLRLSCAASGSTLTRNALGWYRQAPGKERELVAAITQRGGSTYYADSVKGRFTISRDNGKNTVYFQMNSLKPEDTAVYYCAKVPSVKYRSIWVLPEYGWGQGTQVTVSS,high polyreactivity
18,QVQLVESGGGLVQARGSLRLSCAASGSTSTYYAMGWYRQAPGKERELVAAITSSVGSTHYADSVKGRFTISRDNAKNTVYLQMNSLKPEDTAVYYCAATFGYGRYGYWGQGTQVTVSS,low polyreactivity
19,QVQLVESGGGLVQARGSLRLSCAASGYIINQYTKGWYRQAPGKERELVADISSGGSTKYADSVKGRFTISRDNGKNTVSLQMNSLKPEDTAVYYCNGEYDSGSPTAYDWEYDYWVQGTQVTVSS,high polyreactivity
20,QVQLVESGGGLVQARGSLRLSCAASVGILNWYALGWYRLAPVKEWELVAAISWSGGSTYYADSVKGRFTISRDNAKNTVYLHFNSLKPEVTAVYYCAAHSRGRFSRTYGYWGDGTQVTVSS,high polyreactivity
